In PMC8329861, “Structure of the unique tetrameric STENOFOLIA homeodomain bound with target promoter DNA”:

Experiments:
His-MBP-STF85-190 R151A = molecular target: T1, His-MBP-STF85-190 R151A (Medicago truncatula, UniProt G0ZGT3 85-190, R151A); test: EMSA; binding retained; PAGE EMSA: 10 mM Tris-HCl pH 7.5, 100 mM KCl, 1 mM DTT, 2.5% glycerol, 5 ng/ul poly(dI-dC), 0.05% NP-40, 0.05 ug/ul protein, 5 fmol/ul DNA, room temperature 30; details: protein: recombinant; tags: N-terminal 6xHis-MBP; label: 3' biotin; blunt
T1 sequence: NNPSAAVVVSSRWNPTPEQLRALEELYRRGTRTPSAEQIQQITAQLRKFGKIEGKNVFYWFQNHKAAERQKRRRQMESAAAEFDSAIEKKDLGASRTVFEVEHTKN

His-MBP-STF85-190 R96A = molecular target: T2, His-MBP-STF85-190 R96A (Medicago truncatula, UniProt G0ZGT3 85-190, R96A); test: EMSA; PAGE EMSA: 10 mM Tris-HCl pH 7.5, 100 mM KCl, 1 mM DTT, 2.5% glycerol, 5 ng/ul poly(dI-dC), 0.05% NP-40, 0.05 ug/ul protein, 5 fmol/ul DNA, room temperature 30; details: protein: recombinant; tags: N-terminal 6xHis-MBP; label: 3' biotin; blunt
T2 sequence: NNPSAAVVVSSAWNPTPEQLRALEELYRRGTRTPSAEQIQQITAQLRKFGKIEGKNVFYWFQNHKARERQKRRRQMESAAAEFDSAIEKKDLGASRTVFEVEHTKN

His-MBP-STF85-190 R113Q = molecular target: T3, His-MBP-STF85-190 R113Q (Medicago truncatula, UniProt G0ZGT3 85-190, R113Q); test: EMSA; not affected; PAGE EMSA: 10 mM Tris-HCl pH 7.5, 100 mM KCl, 1 mM DTT, 2.5% glycerol, 5 ng/ul poly(dI-dC), 0.05% NP-40, 0.05 ug/ul protein, 5 fmol/ul DNA, room temperature 30; details: protein: recombinant; tags: N-terminal 6xHis-MBP; label: 3' biotin; blunt
T3 sequence: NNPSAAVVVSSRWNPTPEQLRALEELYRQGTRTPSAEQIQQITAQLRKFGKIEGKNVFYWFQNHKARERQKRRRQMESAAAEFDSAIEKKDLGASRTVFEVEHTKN

STF-HD WT [1] = molecular target: T4, STF-HD WT (Medicago truncatula, UniProt G0ZGT3 85-190); test: X-ray crystallography (2.1 A); PAGE EMSA: 10 mM Tris-HCl pH 7.5, 100 mM KCl, 1 mM DTT, 2.5% glycerol, 5 ng/ul poly(dI-dC), 0.05% NP-40, 0.05 ug/ul protein, 5 fmol/ul DNA, room temperature 30; details: protein: recombinant; tags: 6xHis-MBP removed by TEV; chain copies: 4; blunt
T4 sequence: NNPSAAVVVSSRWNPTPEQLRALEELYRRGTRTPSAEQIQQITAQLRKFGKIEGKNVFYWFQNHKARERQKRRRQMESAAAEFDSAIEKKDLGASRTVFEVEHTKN

[2] = molecular target: T5, STF-HD L107M/L110M/L130M (STF_3M-HD) (Medicago truncatula, UniProt G0ZGT3 85-190, L107M;L110M;L130M); test: X-ray crystallography (SAD); SeMet protein; PAGE EMSA: 10 mM Tris-HCl pH 7.5, 100 mM KCl, 1 mM DTT, 2.5% glycerol, 5 ng/ul poly(dI-dC), 0.05% NP-40, 0.05 ug/ul protein, 5 fmol/ul DNA, room temperature 30; details: protein: recombinant, tags: 6xHis-MBP removed by TEV, chain copies: 4, blunt
T5 sequence: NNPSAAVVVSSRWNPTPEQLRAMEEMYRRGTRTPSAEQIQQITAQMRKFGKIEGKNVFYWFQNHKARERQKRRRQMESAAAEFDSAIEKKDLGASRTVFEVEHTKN

STF-HD WT [3] = molecular target: T4, STF-HD WT; test: EMSA (agarose); stable complex at 1:4 DNA:protein; PAGE EMSA: 10 mM Tris-HCl pH 7.5, 100 mM KCl, 1 mM DTT, 2.5% glycerol, 5 ng/ul poly(dI-dC), 0.05% NP-40, 0.05 ug/ul protein, 5 fmol/ul DNA, room temperature 30; details: protein: recombinant; tags: 6xHis-MBP removed by TEV; chain copies: 4; label: 5' 6-FAM; blunt
STF-HD F167A/I171A = molecular target: T6, STF-HD F167A/I171A (Medicago truncatula, UniProt G0ZGT3 85-190, F167A;I171A); test: fluorescence polarization; no significant decrease vs WT; value only in figure; PAGE EMSA: 10 mM Tris-HCl pH 7.5, 100 mM KCl, 1 mM DTT, 2.5% glycerol, 5 ng/ul poly(dI-dC), 0.05% NP-40, 0.05 ug/ul protein, 5 fmol/ul DNA, room temperature 30; details: protein: recombinant; tags: 6xHis-MBP removed by TEV; label: 5' 6-FAM; blunt
T6 sequence: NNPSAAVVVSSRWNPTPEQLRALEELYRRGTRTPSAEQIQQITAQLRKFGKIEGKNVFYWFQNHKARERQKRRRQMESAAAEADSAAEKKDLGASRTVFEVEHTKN

STF-HD S169E = molecular target: T7, STF-HD S169E (Medicago truncatula, UniProt G0ZGT3 85-190, S169E); test: as above; details: protein: recombinant; tags: 6xHis-MBP removed by TEV; label: 5' 6-FAM; blunt
T7 sequence: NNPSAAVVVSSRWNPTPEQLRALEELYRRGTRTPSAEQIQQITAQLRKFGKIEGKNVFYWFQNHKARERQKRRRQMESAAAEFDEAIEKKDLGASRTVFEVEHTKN

B1: TAAT probe (TAAT motifs) (dsDNA)
DNA 1: GCAAATTAATTATTTATTAAAG
DNA 2: CTTTAATAAATAATTAATTTGC
B1: binds (His-MBP-STF85-190 R151A).

B2: MtAS2 22 bp biotin (dsDNA)
DNA 1: TGGATTTAATAATGAAGTGACA
DNA 2: TGTCACTTCATTATTAAATCCA
B2: no binding (His-MBP-STF85-190 R96A); binds (His-MBP-STF85-190 R113Q).

B3: MtLOB39 22 bp (crystal) (dsDNA)
DNA 1: GCAAATTAATGATTTATTCAAG
DNA 2: CTTGAATAAATCATTAATTTGC
B3: binds (STF-HD WT [1]); binds [2].

B4: MtAS2 22 bp FAM (dsDNA)
DNA 1: TGGATTTAATAATGAAGTGACA
DNA 2: TGTCACTTCATTATTAAATCCA
B4: binds (STF-HD WT [3]).

B5: MtLOB39 22 bp FAM (dsDNA)
DNA 1: GCAAATTAATGATTTATTCAAG
DNA 2: CTTGAATAAATCATTAATTTGC
B5: binds (STF-HD F167A/I171A); binds (STF-HD S169E); binds (STF-HD WT [3]).
